The values below come from paper PMC5803408 (Structure (London, England : 1993), 2018).

Assay [1] has as its target T1, human UHRF1 TTD domain (residues 126-284) D142A/E153A (human, UniProt Q96T88 126-284, D142A | E153A).
T1 sequence (looked up): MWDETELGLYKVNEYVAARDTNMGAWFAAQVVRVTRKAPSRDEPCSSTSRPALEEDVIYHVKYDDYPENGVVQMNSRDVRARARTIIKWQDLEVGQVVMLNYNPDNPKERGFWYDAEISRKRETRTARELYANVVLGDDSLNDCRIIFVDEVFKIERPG
The assay can be described thus: cell-based or functional assay.

Assay [2] deals with T2, human UHRF1 TTD-PHD dual domains (residues 126-366) (human, UniProt Q96T88 126-366).
T2 sequence (looked up): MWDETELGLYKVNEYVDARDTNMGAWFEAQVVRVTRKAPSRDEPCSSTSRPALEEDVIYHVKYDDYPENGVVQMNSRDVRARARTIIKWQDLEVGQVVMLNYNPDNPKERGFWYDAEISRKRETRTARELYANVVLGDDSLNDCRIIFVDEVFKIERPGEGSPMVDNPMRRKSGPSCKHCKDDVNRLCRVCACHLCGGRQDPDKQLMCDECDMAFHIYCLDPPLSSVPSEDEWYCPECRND
The assay can be described thus: ITC. (In general: In ITC the heat of successive injections is recorded.)

Assay [3] addresses T3, human UHRF1 TTD domain (residues 126-284) N194A (human, UniProt Q96T88 126-284, N194A).
T3 sequence (looked up): T1 sequence (looked up) with A17D, A28E, N69A
The assay can be described thus: ITC.

The target in assay [4] is T4, human UHRF1 TTD domain (residues 126-284) N147A (human, UniProt Q96T88 126-284, N147A).
T4 sequence (looked up): T1 sequence (looked up) with A17D, N22A, A28E
The assay is described as follows: ITC.

In another assay the test system is chromatin. Particulars: previous study; ref Zhang et al., 2015; cited from earlier work.

Substitutions are numbered along the chain they refer to. Names may count otherwise.

EGGFASPRTGKGKWKRKSAGGGPSRAGSPRRT (peptide, UniProt Q96T88 634-665, looked up) [human UHRF1 PBR peptide (residues 634-665)]: the “FRET ratio of the CFP-UHRF1 (D142A/E153A)-YFP mutant, intramolecular” value in assay [1] was 0.52. For the same molecule, the “fold weaker binding than to TTD” value in assay [2] was around 3 fold. For the same molecule, the binding result in assay [3] and in assay [4] was “binds” in each case.

B1: K644E/K646E: UHRF1 with K644E/K646E mutations in the PBR sequence (previous study) (protein, UniProt Q96T88 1-793, looked up, variant K644E K646E)
E3 ubiquitin-protein ligase …: MWIQVRTMDGRQTHTVDSLSRLTKVEELRRKIQELFHVEPGLQRLFYRGKQMEDGHTLFDYEVRLNDTIQLLVRQSLVLPHSTKERDSELSDTDSGCCLGQSESDKSSTHGEAAAETDSRPADEDMWDETELGLYKVNEYVDARDTNMGAWFEAQVVRVTRKAPSRDEPCSSTSRPALEEDVIYHVKYDDYPENGVVQMNSRDVRARARTIIKWQDLEVGQVVMLNYNPDNPKERGFWYDAEISRKRETRTARELYANVVLGDDSLNDCRIIFVDEVFKIERPGEGSPMVDNPMRRKSGPSCKHCKDDVNRLCRVCACHLCGGRQDPDKQLMCDECDMAFHIYCLDPPLSSVPSEDEWYCPECRNDASEVVLAGERLRESKKKAKMASATSSSQRDWGKGMACVGRTKECTIVPSNHYGPIPGIPVGTMWRFRVQVSESGVHRPHVAGIHGRSNDGAYSLVLAGGYEDDVDHGNFFTYTGSGGRDLSGNKRTAEQSCDQKLTNTNRALALNCFAPINDQEGAEAKDWRSGKPVRVVRNVKGGKNSKYAPAEGNRYDGIYKVVKYWPEKGKSGFLVWRYLLRRDDDEPGPWTKEGKDRIKKLGLTMQYPEGYLEALANREREKENSKREEEEQQEGGFASPRTGEGEWKRKSAGGGPSRAGSPRRTSKKTKVEPYSLTAQQSSLIREDKSNAKLWNEVLASLKDRPASGSPFQLFLSKVEETFQCICCQELVFRPITTVCQHNVCKDCLDRSFRAQVFSCPACRYDLGRSYAMQVNQPLQTVLNQLFPGYGNGR
For B1, the “chromatin binding of UHRF1 with K644E/K646E mutations in PBR” value with chromatin was “reduced chromatin binding of UHRF1”.
